Article PMC6351178

Target: PitA (E. coli (endogenous in MG1655)) (UniProt P0AFJ7)
Assay: cross-linking

Chain of UniProt P0AFJ7 (P0AFJ7 whole entry): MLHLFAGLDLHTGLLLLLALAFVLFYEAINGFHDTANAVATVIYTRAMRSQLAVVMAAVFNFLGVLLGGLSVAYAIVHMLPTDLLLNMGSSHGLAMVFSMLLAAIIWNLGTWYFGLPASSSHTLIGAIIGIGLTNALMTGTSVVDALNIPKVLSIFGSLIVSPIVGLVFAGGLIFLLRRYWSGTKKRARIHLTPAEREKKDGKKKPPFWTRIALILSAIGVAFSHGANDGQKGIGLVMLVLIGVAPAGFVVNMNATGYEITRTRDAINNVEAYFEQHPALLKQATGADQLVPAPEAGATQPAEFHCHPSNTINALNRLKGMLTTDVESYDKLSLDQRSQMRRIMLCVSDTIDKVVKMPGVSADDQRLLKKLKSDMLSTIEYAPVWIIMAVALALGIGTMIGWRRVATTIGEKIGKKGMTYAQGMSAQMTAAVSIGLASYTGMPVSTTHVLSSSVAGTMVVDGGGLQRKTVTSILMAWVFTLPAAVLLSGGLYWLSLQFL

stoichiometry N (MgtS-SPA per PitA): 1
Substance: MgtS-SPA (from UniProt A5A616 1-31) (natural protein)
